Assay results as given in patent US6906179B2, “Antibody to SNIP1” (The General Hospital Corporation, priority 1999, dated 2005).
Where two headings read alike, the source gives them in different places.

Key:
nigral dopamine neurons = conditions: cited from earlier work
SNIP-1 protein level = test: ALK3Q233D-induced degradation of SNIP-1 in transfected COS cells, Western blot; type: cell-based; conditions: COS cells transfected with Smad1, DPC4, antizyme and BMP type II and type I (ALK3) receptors, treated with BMP7 (not shown)
From the text: The novel Smad1 interactor is a nuclear proteip (termed as Smad1 Nuclear Interactor Protein 1, SNIP-1, SEQ ID No. 3), with a carboxyterminal domain that is highly homologous to the aminoterminus of the nuclear inhibitor of protein phosphatase 1 (NIPP-1) (Wang & Lechleider, unpublished) (FIG. 31A & C). NIPP-1 (VanEynde et al., 1995) is known to be rapidly processed into smaller heat-stable intermediates, a process that may be mediated by proteasome (see Discussion in Jagiello et al., 1995). SNIP-1 is a strong interactor of Smad1, that also binds to both antizyme and HsN3 in the yeast two-hybrid assays (FIG. 311B).
Forty-eight hours after transfection, COS cells were lysed in an equal volume of lysis buffer (300 ul/plate), and the total protein concentration of each sample was measured. No major difference in protein concentration was detected among the lysates. The protein level of SNIP-1 in 100 ug of total protein lysate was determined by Western blot using anti-T7 monoclonal antibody. […] Such a decrease is dependent upon the coexpression of Smad1, DPC4 and antizyme, since replacing each of these three proteins with an unrelated protein (β galactosidase) abolishes such a decrease in ALK3Q233D transfected cells (FIG. 31D, top panel, lanes 9-14). […]

rat sympathetic neurons = test: OP-1 induced dendritic growth of rat sympathetic neurons; type: cell-based; conditions: sympathetic neurons
Protocol: If Smad1 and DPC4 signal through proteasome mediated proteolysis, proteasome inhibitors should block the signaling of BMPs. We thus directly tested the effects of the proteasome inhibitors on the signaling pathways of BMPs that signal via Smad1 activation. […] The EC50 for the inhibitory activity of lactacystin was ˜100 nM and maximal effects were obtained with 4-6 hour pretreatments (not shown).
To determine the time course of sensitivity to lactacystin with respect to the signaling pathway of OP-1, lactacystin was added to the media at various time points after the addition of OP-1 (FIG. 32, bottom panel B).

[1] = test system: HsN3 and Smad1 localization; test: Localization of HsN3 and Smad1 in transfected COS cells, confocal microscopy; type: cell-based
From the text: Since the activation of BMP type I receptors, either by BMP ligands in the presence of the type II receptor, or by the presence of a point mutation (Q233D), can induce the translocation of Smad1 from the cytoplasm to the nucleus (Hoodless et al., 1996, Wang et al., unpublished data), we examined whether the intracellular localization of the Smad1 interactor HsN3 is also regulated by the constitutively activated BMP type I receptor ALK3Q233D. The localization of endogenous HsN3 in COS cells in the presence or absence of activated Smad1 was studied by immunocytochemistry and confocal microscopy (FIG. 28). In untransfected COS cells, weak signals from endogenous HsN3 were detected in both the cytoplasm and the nucleus, with a monoclonal anti-HsN3 antibody and a FITC-conjugated anti-mouse secondary antibody (FIG. 28A). […]
To directly study how BMPs regulate the localization of HsN3, COS cells were transfected with the wild type BMP type I receptor ALK3 the BMP type II receptor and Smad1. […] In cells not treated with BMP7, the endogenous HsN3 produced a weak signal in both the cytoplasm and the nucleus that was detected with a FITC conjugated secondary antibody (FIG. 28D1), while the expressed Smad1 also produced a signal located throughout the transfected cells that was detected by Rodamine conjugated secondary antibody (FIG. 28D2). […]

B1: GDNF: glial cell line-derived neurotrophic factor, member of the TGF-β superfamily (protein, UniProt P39905 78-211, looked up)
Glial cell line-derived …: SPDKQMAVLPRRERNRQAAAANPENSRGKGRRGQRGKNRGCVLTAIHLNVTDLGLGYETKEELIFRYCSGSCDAAETTYDKILKNLSRNRRLVSDKVGQACCRPIAFDDDLSFLDDNLVYHILRKHSAKRCGCI
nigral cell death and atrophy (nigral dopamine neurons; intracerebral administration for 4 weeks following lesioning): completely prevented nigral cell death and atrophy
nigral cell death and atrophy (nigral dopamine neurons; single 10 μg injection at 1 week post-lesion): partial protective effect

B2: TGF-β3: TGF-β isoform (protein, UniProt P10600 301-412, looked up)
Transforming growth factor …: ALDTNYCFRNLEENCCVRPLYIDFRQDLGWKWVHEPKGYYANFCSGPCPYLRSADTTHSTVLGLYNTLNPEASASPCCVPQDLEPLTILYYVGRTPKVEQLSNMVVKSCKCS
nigral cell death or atrophy (nigral dopamine neurons; similar dosing strategies): no effect

B3: BMP7: OP-1 (BMP7), bone morphogenetic protein, TGF-β family ligand (protein, UniProt P18075 293-431, looked up)
Bone morphogenetic protein 7: STGSKQRSQNRSKTPKNQEALRMANVAENSSSDQRQACKKHELYVSFRDLGWQDWIIAPEGYAAYYCEGECAFPLNSYMNATNHAIVQTLVHFINPETVPKPCCAPTQLNAISVLYFDDSSNVILKKYRNMVVRACGCH
degradation of SNIP-1 (SNIP-1 protein level): degradation of SNIP-1 has also been observed
Smad1 localization upon OP-1 treatment (rat sympathetic neurons): rapid nuclear translocation of Smad1
HsN3 signal ([1]; 30 mins after BMP7 treatment (20 ng/ml)): only a nuclear HsN3 signal of increased intensity was detected
endogenous HsN3 and overexpressed Smad1 localization ([1]; 60 mins after BMP7 treatment (20 ng/ml)): accumulated in the nucleus
